From patent US20090298781A1, “COMPOUNDS FOR THE INHIBITION OF APOPTOSIS” (CONSEJO SUPERIOR DE, priority 2005, published 2009) come the findings set out here.

The subject of one data set is U937 cell line. Kind of data set: MTT assay, toxicity (cell viability), U937. Format: cell-based. The conditions noted are these: U937, 24 h. The procedure: (§1) The MTT assay measures cell proliferation as well as reduction in cell viability when metabolic events lead to apoptosis or necrosis. It can also be used to assess the rate of survival of a given cell line when it is incubated in the presence of xenobiotics. The reduction of tetrazolium salts is accepted as a reliable way to analyse cell proliferation. The yellow tetrazolium MTT (3-(4,5-dimethylthiazolyl-2)-2,5-diphenyltetrazolium bromide) is reduced by metabolically active cells and results in the intracellular formation of purple formazan that can be spectrophotometrically measured after solubilisation with DMSO.
(§2) The MTT assay was used in this invention to assess the toxicity of compounds at different concentrations. To analyse their potential impairment in cell viability, compounds were added to Saos-2 and U937 cell lines at different concentrations and incubated at different times. Results are expressed by percentage cell viability.

Data set [1] concerns Caspase activity, Saos-2 cell extracts. The data set is described as follows: Caspase inhibition assay, Saos-2 cell extracts. The class given is cell-based. The conditions noted are these: 50 μM drug-eq. The procedure:
(§3) The time-dependent inhibition of caspase induced by the compounds described in this invention was analysed. […] Caspase activity was assayed using Saos-2 or U937 cell extracts and Ac-DEVD-afc (N-acetyl-Asp-Glu-Val-Asp-afc(7-amino-4-trifluoromethyl coumarin)) as substrate (20 μM). Caspase activity was continuously monitored by the liberation of fluorescent afc using a Cytofluor 4000 fluorimeter (excitation 400 nm; emission 508 nm) for 1 hour. The effect of the compounds on the caspase activity was expressed as the percentage of inhibition in the fluorescence signal of treated cells vs. the non-treated cells (control).

In a further data set the test system is Saos-2 cell line. The data set is described as follows: MTT assay, toxicity (cell viability), Saos-2. The class given is cell-based. The procedure: as §1, §2
Data set [2] concerns Apaf-1 induced apoptosis, Saos-2 cells. The data set is described as follows: Inhibition of Apaf-1-induced apoptosis, cellular assay, Saos-2. The class given is cell-based. The settings on record: Saos-2 treated with apoptosome activator, 50 μM drug-eq. The procedure:
(§4) The time-dependent inhibition of caspase induced by the compounds described in this invention was analysed. Cell lines were grown in the presence or absence of compounds (50 μM) at different times. Caspase activity was assayed using Saos-2 or U937 cell extracts and Ac-DEVD-afc (N-acetyl-Asp-Glu-Val-Asp-afc(7-amino-4-trifluoromethyl coumarin)) as substrate (20 μM). Caspase activity was continuously monitored by the liberation of fluorescent afc using a Cytofluor 4000 fluorimeter (excitation 400 nm; emission 508 nm) for 1 hour. The effect of the compounds on the caspase activity was expressed as the percentage of inhibition in the fluorescence signal of treated cells vs. the non-treated cells (control).
(§5) The activity of the compounds regards their specific target within the apoptotic machinery was assessed. Apaf-1 oligomerisation is a molecular event that leads to the activation of the apoptosome formation, which ends up in the induction of apoptosis. These experiments were performed in cell-free and in cellular assays.
(§6) For the cellular assays, Saos-2 and U937 cells were treated with an apoptosome activator (Nguyen and Wells, Proc. Natl. Acad. Sci. USA 2003, 100:7533-7538), which specifically induces Apaf-1 oligomerisation. […] The capacity of the compounds of inhibiting the Apaf-1 induced apoptosis was analysed by the inhibition of caspase activity (see above).

The subject of data set [3] is Caspase activity, U937 cell extracts. The data set is described as follows: Caspase inhibition assay, U937 cell extracts. The conditions noted are these: 50 μM drug-eq. Format: cell-based. As for the experimental part: as §3
Data set [4] deals with Apaf-1 induced apoptosis, U937 cells. Kind of data set: Inhibition of Apaf-1-induced apoptosis, cellular assay, U937. The class given is cell-based. The conditions noted are these: U937 treated with apoptosome activator, 50 μM drug-eq. As for the experimental part:
as §4, §5, §6

Another data set concerns the target T1, recombinant Apaf-1 (Homo sapiens, UniProt O14727).
T1 construct: made in house
T1 sequence (O14727 1-1248): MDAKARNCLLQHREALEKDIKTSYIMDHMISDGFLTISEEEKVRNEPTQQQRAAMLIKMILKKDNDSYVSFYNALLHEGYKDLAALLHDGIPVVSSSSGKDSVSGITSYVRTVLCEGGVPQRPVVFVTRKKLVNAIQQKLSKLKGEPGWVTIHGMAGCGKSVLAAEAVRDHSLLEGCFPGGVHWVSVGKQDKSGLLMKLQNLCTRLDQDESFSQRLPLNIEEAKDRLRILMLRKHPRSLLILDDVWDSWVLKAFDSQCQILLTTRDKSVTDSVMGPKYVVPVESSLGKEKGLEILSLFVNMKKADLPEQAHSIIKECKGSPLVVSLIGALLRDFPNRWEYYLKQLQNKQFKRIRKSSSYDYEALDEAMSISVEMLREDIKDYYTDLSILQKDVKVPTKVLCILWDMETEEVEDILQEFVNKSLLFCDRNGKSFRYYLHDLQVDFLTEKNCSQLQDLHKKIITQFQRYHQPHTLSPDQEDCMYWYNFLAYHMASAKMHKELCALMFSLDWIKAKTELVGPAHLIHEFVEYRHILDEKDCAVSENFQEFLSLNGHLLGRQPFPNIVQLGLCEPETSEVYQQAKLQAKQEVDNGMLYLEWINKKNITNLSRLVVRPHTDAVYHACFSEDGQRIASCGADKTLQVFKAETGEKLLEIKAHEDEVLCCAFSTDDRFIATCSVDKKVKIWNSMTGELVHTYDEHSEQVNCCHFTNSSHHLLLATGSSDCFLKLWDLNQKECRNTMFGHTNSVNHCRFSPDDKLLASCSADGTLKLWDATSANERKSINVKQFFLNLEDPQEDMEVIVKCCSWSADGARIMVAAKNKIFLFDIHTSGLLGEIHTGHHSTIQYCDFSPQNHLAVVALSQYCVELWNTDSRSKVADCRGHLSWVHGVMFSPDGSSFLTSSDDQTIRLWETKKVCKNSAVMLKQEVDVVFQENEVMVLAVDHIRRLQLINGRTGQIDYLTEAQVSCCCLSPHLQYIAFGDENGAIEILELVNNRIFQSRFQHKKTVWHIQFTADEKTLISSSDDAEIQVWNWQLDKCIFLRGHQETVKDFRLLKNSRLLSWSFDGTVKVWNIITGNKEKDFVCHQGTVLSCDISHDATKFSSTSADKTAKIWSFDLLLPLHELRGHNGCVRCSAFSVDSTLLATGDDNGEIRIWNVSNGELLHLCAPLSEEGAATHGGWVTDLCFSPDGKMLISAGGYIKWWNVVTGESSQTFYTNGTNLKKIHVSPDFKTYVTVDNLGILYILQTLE
The data set is described as follows: Cell-free caspase inhibition assay, Hek-293 FT cytoplasmatic fraction with recombinant Apaf-1. Format: biochemical. The conditions noted are these: Hek-293 FT fraction + recombinant Apaf-1 (FIG. 1), read-out: IC50, concentration needed to inhibit 50% of caspase activity. The procedure: as §5
For the cell-free assays, Hek-293 cytoplasmatic extracts were prepared as described before (Malet et al, 2005) and a partitioning of the complete cell extract was carried out. Concomitantly, recombinant Apaf-1 was purified according to Malet et al, 2005. The FT fraction (containing caspase-3 and -9 but lacking Apaf-1), was incubated with recombinant Apaf-1 in the presence of different concentrations of the compounds (see FIG. 1). The activity of the compounds was analysed by the inhibition of caspase activity (see above).
FIG. 1: Cell-free caspase inhibition assay using Hek-293 FT cytoplasmatic fraction incubated with recombinant Apaf-1 in the presence of different concentrations the compound IIa.1.

Non-standard residues stand in square brackets, D forms with d. Residues, ends and D or L forms follow the SMILES beside them. *: point of attachment. X1 = O=C1CC(C(=O)*)N(CCC(c2ccccc2)c2ccccc2)C(=O)CN1CCc1ccc(Cl)cc1Cl; N(2,4-Cl2-phenethyl)Gly = O=C(O)CNCCc1ccc(Cl)cc1Cl

With “Poly-L-glutamic acid-[1-[2-(2,4-Dichlorophenyl)ethyl]-3-(3,3-diphenyl-propyl)-3,7-dioxo[1,4]diazepane-5-carboxylic acid {[({[(5-amino-1-carbamoylpentylcarbamoyl)methyl]-carbamoyl}methyl)carbamoyl]methyl}-[2-(2,4-dichlorophenyl)ethyl]amide] conjugate [III.1]”, the “% Cell viability” value with U937 cell line (20 μM drug-eq.) is 98%; in the data set with U937 cell line (50 μM drug-eq.) it was 96%; with U937 cell line (100 μM drug-eq.), 84%; in the data set with U937 cell line (250 μM drug-eq.), 50%; in the data set on U937 cell line (500 μM drug-eq.) it was 27%; in the data set with Saos-2 cell line (Saos-2, 24 h, 20 μM drug-eq.), 96%. In addition, the “% Cell viability” value worked out at 99% in the data set on Saos-2 cell line (Saos-2, 24 h, 50 μM drug-eq.); 93% in the data set on Saos-2 cell line (Saos-2, 24 h, 100 μM drug-eq.); 75% in the data set with Saos-2 cell line (Saos-2, 24 h, 250 μM drug-eq.); 35% in the data set on Saos-2 cell line (Saos-2, 24 h, 500 μM drug-eq.); 95% in the data set with Saos-2 cell line (Saos-2, 48 h, 20 μM drug-eq.); 87% in the data set on Saos-2 cell line (Saos-2, 48 h, 50 μM drug-eq.). In addition, the “% Cell viability” value is listed as 95% in the data set on Saos-2 cell line (Saos-2, 48 h, 100 μM drug-eq.); 86% with Saos-2 cell line (Saos-2, 72 h, 20 μM drug-eq.); 63% with Saos-2 cell line (Saos-2, 72 h, 50 μM drug-eq.); 68% with Saos-2 cell line (Saos-2, 72 h, 100 μM drug-eq.). In addition, the “% Inh. caspase” value was 67% in data set [1] (Saos-2, 24 h); 72% in data set [1] (Saos-2, 48 h); 100% in data set [1] (Saos-2, 72 h); 74% in data set [3] (U937, 24 h); 85% in data set [3] (U937, 48 h); 100% in data set [3] (U937, 72 h). Further, the “% Inh. caspase activity” value in data set [2] (24 h) was 22%; in data set [2] (48 h), 54%; in data set [4] (24 h), 27%; in data set [4] (48 h) it was 95%.

Take `NCCCC[C@H](NC(=O)CNC(=O)CNC(=O)CN(CCc1ccc(Cl)cc1Cl)C(=O)C1CC(=O)N(CCc2ccc(Cl)cc2Cl)CC(=O)N1CCC(c1ccccc1)c1ccccc1)C(N)=O` (stereo partly drawn) [IIa.1, 1-[2-(2,4-Dichlorophenyl)ethyl]-3-(3,3-diphenyl-propyl)-3,7-dioxo[1,4]diazepane-5-carboxylic acid {[({[(5-amino-1-carbamoylpentylcarbamoyl)methyl]-carbamoyl}methyl)carbamoyl]methyl}-[2-(2,4-dichlorophenyl)ethyl]amide] (X1-[N(2,4-Cl2-phenethyl)Gly]GGK-NH2): the IC50 on recombinant Apaf-1 is roughly 30 µM.
